Where a chain is given by its changes, count along the chain named.
Tests used:
Conditions in all cases: both partners purified
[1] = target: SFTSV Gn glycoprotein (G19-K452, C3 genotype) (SFTSV (Dabie bandavirus), strain SDTA1, …, UniProt A0A1S6K8S9, strain); assay: BLI
[2] = target: T1, SFTSV Gn head (positions 19-337), J1 genotype (KU18-5/Japan) (SFTSV (Dabie bandavirus), strain …, strain); assay: SPR
T1 construct: source: HEK293F cells (Sino Biological), purified (HisTrap, size exclusion)

[3] = target: T2, SFTSV Gn head (positions 19-337), C2 genotype (P24-Vero_2021/China) (SFTSV (Dabie bandavirus), strain …, strain); assay: SPR
T2 construct: source: HEK293F cells (Sino Biological), purified (HisTrap, size exclusion)

[4] = target: T3, SFTSV Gn head (positions 19-337), C3 genotype (SDTA1/China) (SFTSV (Dabie bandavirus), strain SDTA1, …, UniProt A0A1S6K8S9, strain); assay: SPR
T3 construct: source: HEK293F cells (Sino Biological), purified (HisTrap, size exclusion)

[5] = target: T4, SFTSV Gn head (as crystallised with the Fabs) (SFTSV (Dabie bandavirus), strain SDTA1, …); assay: crystal structure
T4 construct: also called Gn protein

B1: SD4 monoclonal antibody (human IgG1) (antibody, V domains shown)
VH: QVQLVESGGGVVQPGRSLRLSCAASGFPFSGYGMHWVRQAPGKGLEWVAVISYDGSEKNYADSVKGRFTISRDNSKNTLYLQMNSLRVEDTAVYYCAKDRDYYGSGFYDYWGQGTLVTVSS
VL: DIQMTQSPSSLSASVGDRVTITCQASQHISNHLNWYQQKPGTAPTLLIYEASNLETGVPSRFSGSGSGTDFSFTISSLRPEDFATYYCQQYDNFPLTFGPGTTMDIK
notes: also called mAb SD4
[1]
  Kd: 96 pM
[2]
  Kd: 62.8 pM
[3]
  Kd: 32.1 pM
[4]
  Kd: 82.7 pM

B2: SD4 Fab (Fab, V domains shown)
VH: B1 VH
VL: B1 VL
notes: source: purified
[5]
  binding result: binds

B3: SD4-X monoclonal antibody (human IgG1) (antibody, V domains shown)
VH: B1 VH with P28T, G31S, E57N, N59Y, V88A, Y108F
VL: DIQMTQSPSSLSASVGDRVTITCQASQDISNHLNWYQEKPGKVPKLLIYEASNVETGVPSRFSGSGSGTDFTFTISSLQPEDIATYYCQQYDNLPYTFGQGTKLEIK
[1]
  binding result: binds

B4: SD4-S monoclonal antibody (human IgG1) (antibody, V domains shown)
VH: B1 VH with V12L, P28T, A61G, M83I, V88T, T91R, Y103F, Y108F
VL: DIQMTQSPSSLSASVGDRVTITCQASQDITKYLNWYQQKPGKAPKLLIFEASNLETGVPSRFSGSGSGTDFTFTISSLQPEDFATYYCQQYGDFPLTFGGGTKVEIK
[1]
  binding result: binds

B5: SD22 monoclonal antibody (human IgG1) (antibody, V domains shown)
VH: QVQLVESGGGVVQPGRSLRLSCAASGFTFSGFGMHWVRQAPGKGLEWVALISYDGSDTYYSDSVKGRFTISRDNSKNTLYLQLKSLRPDDTAVYYCVGDRDYFGSGFFDHWGQGTLVTVSS
VL: DIQMTQSPSSLSASIGDRVTITCRASRHITNHLNWYQHKPGRAPKLLIYEASNLQAGVPSRFSGSGSGTDFTFTISSLQPEDFATYYCQQYDNLPPAFGGGTKVDIK
notes: IgG1; germline IGHV3-30; also called mAb SD22
[2]
  Kd: 55.7 pM
[3]
  Kd: 51.5 pM
[4]
  Kd: 54.2 pM

B6: SD22 Fab (Fab, V domains shown)
VH: B5 VH
VL: B5 VL
notes: source: purified
[5]
  binding result: binds

B7: SD12 monoclonal antibody (human IgG1) (antibody, V domains shown)
VH: EVQLLESGGGLVQPGGSLRLSCAASGFIFSSYAMSWVRQAPGKGLEWVSAISGSGGSTYYADSVKGRFTISRDNSKNTLYLQMNSLRDEDTAVYYCAKDRSYVSSGFFDDWGQGTLVTVSS
VL: B3 VL with H32Y, E38Q, K39R, V43A, Y49F, V54L, D92E, P95L
notes: IgG1; also called mAb SD12
[2]
  Kd: 60200 pM
[3]
  Kd: 74100 pM
[4]
  Kd: 87800 pM

B8: SD12 Fab (Fab, V domains shown)
VH: B7 VH
VL: B3 VL with H32Y, E38Q, K39R, V43A, Y49F, V54L, D92E, P95L
notes: source: purified
[5]
  binding result: binds
